Source: the RNAGym collection of RNA variant scans (doi:10.1093/molbev/msab373)

B1: Azoarcus group I ribozyme (parent)
chain: GUGCCUUGCGCCGGGAAACCACGCAAGGGAUGGUGUCAAAUUCGGCGAAACCUAAGCGCCCGCCCGGGCGUAUGGCAACGCCGAGCCAAGCUUCGGCGCCUGCGCCGAUGAAGGUGUAGAGACUAGACGGCACCCACCUAAGGCAAACGCUAUGGUGAAGGCAUAGUCCAGGGAGUGGCGAAAGUCACACAAACCGG

Variants of: B1
Assay: reverse-splicing fitness (ratio to wild type); higher = more active; in vitro selection; Mg2+ level not given
How it was run: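 An in vitro group I ribozyme library with randomized positions was T7-transcribed and gel-purified. In triplicate, 10 pmol RNA in EPPS pH 7.5 was reacted with 50 pmoles of a 30-nt RNA substrate for 1 h at 37 °C across several added MgCl2 levels (1–48 mM), then stopped with EDTA. Products were reverse transcribed from a substrate-complementary primer, PCR-amplified and sequenced (HiSeq 4000). Fitness is a variant's read proportion after selection over that before, normalised to wild type.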

Row | Variant | reverse-splicing fitness
1 | GUGCCUUGCGCCGGGAAACCACGCAAGGGAUGGUGUCAAAUUCGGCGAAACCUAAGCGCCCGCCCGGGCGUAUGGCAACGCAGAGCCAAGCUUCGGCGCCUGCGCCGAUGAAGGUGUAGUGACUAGACGGCACCCACCUAAGGCCAACGUUAUGGUGAAGGCAUAGUCGAGGGAGUGGCGAAAGUCACACAAACCGG | 0.00276
2 | GUGCCUUGCGCCGGGAAACCACGCAAGGGAUGGUGUCAAAUUCGGCGAAACCUAAGCGCCCGCCCGGGCGUAUGGCAACGCAGAGCCAAGCUUCGGCGCCUGCGCCGAUGAAGGUGUAGUGACUAGACGGCACCCACCUAAGGCCAACGUUAUGGUGAAGGCAUAGUCUAGGGAGUGGCGAAAGUCACACAAACCGG | 0.00313
3 | GUGCCUUGCGCCGGGAAACCACGCAAGGGAUGGUGUCAAAUUCGGCGAAACCUAAGCGCCCGCCCGGGCGUAUGGCAACGCAGAGCCAAGCUUCGGCGCCUGCGCCGAUGAAGGUGUAGUGACUAGACGGCACCCACCUAAGGCCAACGUUAUGGUGAAGGCAUAGUCAAGGGAGUGGCGAAAGUCACACAAACCGG | 0.00197
4 | GUGCCUUGCGCCGGGAAACCACGCAAGGGAUGGUGUCAAAUUCGGCGAAACCUAAGCGCCCGCCCGGGCGUAUGGCAACGCAGAGCCAAGCUUCGGCGCCUGCGCCGAUGAAGGUGUAGUGACUAGACGGCACCCACCUAAGGCCAACGCUAUGGUGAAGGCAUAGUCAAGGGAGCGGCGAAAGUCACACAAACCGG | 0.0019
5 | GUGCCUUGCGCCGGGAAACCACGCAAGGGAUGGUGUCAAAUUCGGCGAAACCUAAGCGCCCGCCCGGGCGUAUGGCAACGCAGAGCCAAGCUUCGGCGCCUGCGCCGAUGAAGGUGUAGUGACUAGACGGCACCCACCUAAGGCCAACGCUAUGGUGAAGGCAUAGUCAAGGGAGAGGCGAAAGUCACACAAACCGG | 0.00193
6 | GUGCCUUGCGCCGGGAAACCACGCAAGGGAUGGUGUCAAAUUCGGCGAAACCUAAGCGCCCGCCCGGGCGUAUGGCAACGCAGAGCCAAGCUUCGGCGCCUGCGCCGAUGAAGGUGUAGUGACUAGACGGCACCCACCUAAGGCCAACGCUAUGGUGAAGGCAUAGUCAAGGGAGGGGCGAAAGUCACACAAACCGG | 0.00126
7 | GUGCCUUGCGCCGGGAAACCACGCAAGGGAUGGUGUCAAAUUCGGCGAAACCUAAGCGCCCGCCCGGGCGUAUGGCAACGCAGAGCCAAGCUUCGGCGCCUGCGCCGAUGAAGGUGUAGUGACUAGACGGCACCCACCUAAGGCCAACGUUAUGGUGAAGGCAUAGUCAAGGGAGAGGCGAAAGUCACACAAACCGG | 0.00195
8 | GUGCCUUGCGCCGGGAAACCACGCAAGGGAUGGUGUCAAAUUCGGCGAAACCUAAGCGCCCGCCCGGGCGUAUGGCAACGCAGAGCCAAGCUUCGGCGCCUGCGCCGAUGAAGGUGUAGUGACUAGACGGCACCCACCUAAGGCCAACGUUAUGGUGAAGGCAUAGUCAAGGGAGCGGCGAAAGUCACACAAACCGG | 0.00251
9 | GUGCCUUGCGCCGGGAAACCACGCAAGGGAUGGUGUCAAAUUCGGCGAAACCUAAGCGCCCGCCCGGGCGUAUGGCAACGCAGAGCCAAGCUUCGGCGCCUGCGCCGAUGAAGGUGUAGUGACUAGACGGCACCCACCUAAGGCCAACGUUAUGGUGAAGGCAUAGUCAAGGGAGGGGCGAAAGUCACACAAACCGG | 0.002
10 | GUGCCUUGCGCCGGGAAACCACGCAAGGGAUGGUGUCAAAUUCGGCGAAACCUAAGCGCCCGCCCGGGCGUAUGGCAACGCAGAGCCAAGCUUCGGCGCCUGCGCCGAUGAAGGUGUAGUGACUAGACGGCACCCACCUAAGGCCAACGCUAUGGUGAAGGCAUAGUCAAGGGAGUGGCGAAAGUCACACAAACCGG | 0.00194
11 | GUGCCUUGCGCCGGGAAACCACGCAAGGGAUGGUGUCAAAUUCGGCGAAACCUAAGCGCCCGCCCGGGCGUAUGGCAACGCAGAGCCAAGCUUCGGCGCCUGCGCCGAUGAAGGUGUAGUGACUAGACGGCACCCACCUAAGGCCAACGCUAUGGUGAAGGCAUAGUCGAGGGAGUGGCGAAAGUCACACAAACCGG | 0.0041
12 | GUGCCUUGCGCCGGGAAACCACGCAAGGGAUGGUGUCAAAUUCGGCGAAACCUAAGCGCCCGCCCGGGCGUAUGGCAACGCAGAGCCAAGCUUCGGCGCCUGCGCCGAUGAAGGUGUAGUGACUAGACGGCACCCACCUAAGGCCAACGGUAUGGUGAAGGCAUAGUCCAGGGAGAGGCGAAAGUCACACAAACCGG | 0.00523
13 | GUGCCUUGCGCCGGGAAACCACGCAAGGGAUGGUGUCAAAUUCGGCGAAACCUAAGCGCCCGCCCGGGCGUAUGGCAACGCAGAGCCAAGCUUCGGCGCCUGCGCCGAUGAAGGUGUAGUGACUAGACGGCACCCACCUAAGGCCAACGGUAUGGUGAAGGCAUAGUCCAGGGAGCGGCGAAAGUCACACAAACCGG | 0.00832
14 | GUGCCUUGCGCCGGGAAACCACGCAAGGGAUGGUGUCAAAUUCGGCGAAACCUAAGCGCCCGCCCGGGCGUAUGGCAACGCAGAGCCAAGCUUCGGCGCCUGCGCCGAUGAAGGUGUAGUGACUAGACGGCACCCACCUAAGGCCAACGGUAUGGUGAAGGCAUAGUCCAGGGAGGGGCGAAAGUCACACAAACCGG | 0.00275
15 | GUGCCUUGCGCCGGGAAACCACGCAAGGGAUGGUGUCAAAUUCGGCGAAACCUAAGCGCCCGCCCGGGCGUAUGGCAACGCAGAGCCAAGCUUCGGCGCCUGCGCCGAUGAAGGUGUAGUGACUAGACGGCACCCACCUAAGGCCAACGUUAUGGUGAAGGCAUAGUCUAGGGAGCGGCGAAAGUCACACAAACCGG | 0.00257
